Target: バキュロウイルスを用いて作製したFlagタグ融合インフルエンザウィルスH1N1由来のリコンビナントヌクレオプロテイン(NP)タンパク質 (influenza A virus H1N1)

B1: 配列番号:08により表されるアミノ酸配列からなるVHH抗体 (VHH)
VHH: QVQLVESGGGLVQAGGSLRLSCAASRTIFNPNVMGWYRQAPGKQRELVADISLSGSTNYADSVKGRFTISRDNAKNTMYLQMNSLKPEDTAVYYCNTNAISGAPGRYWGQGTQVTVSS
How did the Kd turn out when B1 was run?
The Kd was 0.236 nM.
